The values below come from PMC11132685.

This assay addresses tetrabrachion-stabilised recombinant N2 NA (NACHO) of A/MORAMANGA/1907/2017 (not stated | influenza A virus (H3N2) A/MORAMANGA/1907/2017). Briefly: SEC-MALS; purified NACHOs; oligomeric state; conditions not given. (In general: SEC sorts molecules by how far they enter the pores of the column.)

For the substance “tetrabrachion-stabilised recombinant N2 NA (NACHO) of A/MORAMANGA/1907/2017 (enzyme)”, the stoichiometry N came out at 4.

As usually defined, the stoichiometry N is a count of units in the complex or per binding partner.
